Patent US20150299285A1
Bridges are numbered along the chain shown (N, C = ends). Primed or numbered codes have the meaning given here. Where no end group is shown, it is not given here. [ ]: non-standard residue; d: D form. PEG4′ = non-peptide PEG4 spacer in the linking moiety; PEG8″ = non-peptide PEG8 spacer in the linking moiety

B1: DP19LysC (ligand)
chain: GPEHLCGAHLVDALYLVCGDRGFYGYGSSSRRAPQTGIVDECCHRSCDLRRLENYCN
B2: MIU-67: B0, C8-PEG10K di-PEGylated B^1(H5,Y16,L17)25-C^1(K8)-A^1(N18,21) (ligand)
chain: {PEG 10 kDa}-GPEHLCGAELVDALYLVCGDRGFYGYGSSSRK(PEG 10 kDa)APQTGIVDECCFRSCDLRRLENYCN
modifications: disulfide 18-56, 42-47, 6-43
B3: MIU-57: B1-PEG20K B^1(H5,Y16,L17)25-C^1-A^1(N18,21), P05019 49-110 (ligand)
chain: {PEG 20 kDa}-GPEHLCGAELVDALYLVCGDRGFYGYGSSSRRAPQTGIVDECCFRSCDLRRLENYCN
modifications: disulfide 18-56, 42-47, 6-43
B4: MIU-35: B^1(H5, H10, Y16, L17)25-C^1-A^1 (H8, N18, N21) (ligand)
chain: B1 chain
B5: MIU-69: B0, A14-PEG10K di-PEGylated B^1(H5,Y16,L17)25-C^1(K8)-A^1(K14, N18,21) (ligand)
chain: {PEG 10 kDa}-GPEHLCGAELVDALYLVCGDRGFYGYGSSSRKAPQTGIVDECCFRSCDLK(PEG 10 kDa)RLENYCN
modifications: disulfide 18-56, 42-47, 6-43
B6: MIU-58: B1-PEG20K-B1- Dimer, P05019 49-110 (ligand)
chain: {PEG 20 kDa}-GPEHLCGAELVDALYLVCGDRGFYGYGSSSRRAPQTGIVDECCFRSCDLRRLENYCN
modifications: disulfide 18-56, 42-47, 6-43; also: dimer: two chains linked head to head via 20 kDa PEG
B7: MIU-68: B0, B22-PEG10K di-PEGylated B^1(H5,Y16,L17, K22)25-C^1(K8)-A^1(N18,21) (ligand)
chain: {PEG 10 kDa}-GPEHLCGAELVDALYLVCGDK(PEG 10 kDa)GFYGYGSSSRKAPQTGIVDECCFRSCDLRRLENYCN
modifications: disulfide 18-56, 42-47, 6-43

Biological target: insulin receptor subtype B (human) (UniProt P06213)
Assay: cell-based or functional assay

| EC50, Receptor Phosphorylation [nM] | Binder |
| --- | --- |
| 1.2 | B1 |

Biological target: human IGF-1 receptor (human) (UniProt P08069)
Assay: cell-based or functional assay

| EC50, Receptor Phosphorylation [nM] | Binder |
| --- | --- |
| 20.7 | B1 |

Biological target: insulin receptor subtype A (human) (UniProt P06213)
Assay: cell-based or functional assay

| EC50, Receptor Phosphorylation [nM] | Binder |
| --- | --- |
| 0.3 | B1 |

Biological target: insulin receptor subtype B (human), P06213
Assay: cell-based or functional assay

| % Insulin Activity (in vitro; assay not stated) [%] | Binder |
| --- | --- |
| 0.1 | B2 |
| 1.1 | B3 |
| 17.4 | B4 |
| 0.5 | B5 |
| 5.8 | B6 |
| 0.1 | B7 |

Biological target: insulin receptor subtype A (human), P06213
Assay: cell-based or functional assay

| % Insulin Activity (in vitro; assay not stated) [%] | Binder |
| --- | --- |
| 0.2 | B2 |
| 3.1 | B3 |
| 14.8 | GPEHLCGAELVDALYLVCGDRGFY[PEG8″]K(PEG 20 kDa)[PEG4′]GIVDECCFRSCDLRRLENYCN (ligand, disulfide 18-47, 33-38, 6-34) [MIU-56: C8-PEG20K B^1(H5, Y16, L17)25-PEG8-K-PEG4-A^1(N18, N21)] |
| 61.4 | B4 |
| 1 | B5 |
| 19.7 | B6 |
| 0.4 | B7 |
